For the series, the system named is MePEG2-IEGR (TFA salt).

As for Factor Xa, the “Kcat (Vmax/[FXa])” value was “Kcat=Vmax/[FXa]=1.05×10^14 s^-1” and the “luminescence signal (RLU) from substrate cleavage, 80 nM enzyme” value is listed as “A concentration of 80 nm FXa yielded a signal of 1.000.000 RLU”.
Take thrombin: the “luminescence signal (RLU) from substrate cleavage, 52 nM enzyme” value is given as 52 nM thrombin yielded ˜30.000 RLU.

Source of the values: patent publication US20210371461.
